This note sets out measurements from patent publication US20250129145A1 (Ablynx, published 2025).

In assay [1] the target is T1, human serum albumin (human, UniProt P02768 25-609).
T1 construct: Bought protein; also called HSA
The experiment in a line: SPR Biacore 8K+, HSA immobilized (C1 chip), pH 6.0, bivalent analyte fit (kd1). As for the experimental part: (§1) The constructs containing a 9GS and 35GS linker between the albumin-binding building blocks were selected for further characterization. The affinities of the purified ISVD expression constructs for human and mouse serum albumin (HSA and MSA, respectively) at pH 6.0 and pH 7.4 were determined on a Biacore 8K+ instrument. HSA or MSA (HSA: Sigma-Aldrich-Sigma, Cat No. A8763; MSA: Albumin Bioscience, Cat No. 2601) was immobilized on a Series S Sensor Chip C1. The fusion proteins as described in Table 7 above were injected at 9 different concentrations (between 0.6 and 2000 nM) and allowed to associate for 120 s at 30 μL/min and dissociate for 600 s. Evaluation of the sensorgrams was based on the bivalent analyte fit.
In general terms: In SPR one partner is held on a chip, and binding of the other changes the refractive index at the surface.

Assay [2] deals with T1, human serum albumin. The experiment in a line: SPR Biacore 8K+, HSA immobilized (C1 chip), pH 7.4, bivalent analyte fit (kd1). As for the experimental part: as §1
Assay [3] has as its target T1, human serum albumin. The assay is described as follows: SPR Biacore 8K+, HSA immobilized (C1 chip), pH 7.4, bivalent analyte fit (KD1). As for the experimental part:
as §1

Assay [4] addresses T2, mouse serum albumin (mouse, UniProt P07724 25-608).
T2 construct: Bought protein; also called MSA
The assay is described as follows: SPR Biacore 8K+, MSA immobilized (C1 chip), pH 6.0, bivalent analyte fit (ka1). The method, then: as §1

The target in assay [5] is T1, human serum albumin. The experiment in a line: SPR Biacore 8K+, HSA immobilized (C1 chip), pH 7.4, bivalent analyte fit (ka1). The method, then:
as §1

Assay [6] addresses T2, mouse serum albumin. The assay is described as follows: SPR Biacore 8K+, MSA immobilized (C1 chip), pH 6.0, bivalent analyte fit (kd1). As for the experimental part:
as §1

In assay [7] the target is T2, mouse serum albumin. The assay is described as follows: SPR Biacore 8K+, MSA immobilized (C1 chip), pH 7.4, bivalent analyte fit (ka1). The method, then: as §1
The target of assay [8] is T2, mouse serum albumin. The experiment in a line: SPR Biacore 8K+, MSA immobilized (C1 chip), pH 6.0, bivalent analyte fit (KD1). The method, then: as §1
The target of assay [9] is T1, human serum albumin. The assay is described as follows: SPR Biacore 8K+, HSA immobilized (C1 chip), pH 6.0, bivalent analyte fit (ka1). As for the experimental part: as §1
Assay [10] has as its target T2, mouse serum albumin. The experiment in a line: SPR Biacore 8K+, MSA immobilized (C1 chip), pH 7.4, bivalent analyte fit (kd1). As for the experimental part:
as §1

Assay [11] addresses T2, mouse serum albumin. The experiment in a line: SPR Biacore 8K+, MSA immobilized (C1 chip), pH 7.4, bivalent analyte fit (KD1). The method, then: as §1
In assay [12] the target is T1, human serum albumin. The assay is described as follows: SPR Biacore 8K+, HSA immobilized (C1 chip), pH 6.0, bivalent analyte fit (KD1). The method, then:
as §1

Assay [13] deals with T1, human serum albumin. The assay is described as follows: SPR ProteOn XPR36, HSA immobilized (GLC sensor), pH 6.0, Langmuir 1:1 fit. As for the experimental part: (§2) In a first experiment, the affinities of monovalent (ALB00223) and a bivalent ALB23002 construct (T032200003) for human and mouse serum albumin (HSA and MSA, respectively) at pH 6.0 and pH 7.4 were determined on a ProteOn XPR36 instrument (Bio-rad Laboratories, Inc.). HSA or MSA (HSA: Sigma-Aldrich—Sigma, Cat No. A8763; MSA: Albumin Bioscience, Cat No. 2601) was immobilized via amine coupling on a GLC sensor (short matrix, normal capacity). The constructs were injected at 6 different concentrations (between 0.95 and 500 nM) and allowed to associate for 120 s at 45 μL/min and dissociate for 600 s. Evaluation of the sensorgrams was based on the Kinetic Langmuir 1:1 (simultaneous ka/kd) fit.

The target of assay [14] is T1, human serum albumin. The experiment in a line: SPR ProteOn XPR36, HSA immobilized (GLC sensor), pH 7.4, Langmuir 1:1 fit. The method, then: as §2
The target of assay [15] is T2, mouse serum albumin. The assay is described as follows: SPR ProteOn XPR36, MSA immobilized (GLC sensor), pH 6.0, Langmuir 1:1 fit. The method, then: as §2
In assay [16] the target is T2, mouse serum albumin. The experiment in a line: SPR ProteOn XPR36, MSA immobilized (GLC sensor), pH 7.4, Langmuir 1:1 fit. The method, then: as §2
The target of assay [17] is T1, human serum albumin. The assay is described as follows: SPR Biacore 8K+, HSA immobilized (C1 chip), pH 7.4, bivalent analyte fit (kd1). As for the experimental part:
(§3) The affinities of the purified multivalent albumin binding constructs for HSA at pH 7.4 was determined on a Biacore 8K+ instrument. HSA (Sigma-Aldrich—Sigma, Cat No. A8763) was immobilized on a Series S Sensor Chip C1. The multivalent albumin binding proteins as described in Table 12 above were injected at 9 different concentrations (between 1.6 and 2500 nM) and allowed to associate for 120 s at 30 μL/min and dissociate for 600 s.
This is another data set of the same source.

The target of assay [18] is T1, human serum albumin. The assay is described as follows: SPR Biacore 8K+, HSA immobilized (C1 chip), pH 7.4, bivalent analyte fit (KD1). The method, then:
as §3
This is another data set of the same source.

Assay [19] has as its target T1, human serum albumin. The experiment in a line: SPR Biacore 8K+, HSA immobilized (C1 chip), pH 7.4, bivalent analyte fit (ka1). As for the experimental part:
as §3
The source holds these as a separate data set.

Assay [20] has as its target T1, human serum albumin. The experiment in a line: SPR, pH 7.4, immobilized HSA density ~500 RU. As for the experimental part:
(§4) The purified multivalent albumin binding constructs were also tested in SPR on different densities of HSA (100 RU until 6700 RU) to detect avidity.

For assay [21], the target named is T1, human serum albumin. The assay is described as follows: SPR, pH 7.4, immobilized HSA density ~100 RU. As for the experimental part: as §4
The target of assay [22] is T1, human serum albumin. The experiment in a line: SPR, pH 7.4, immobilized HSA density ~6700 RU. The method, then: as §4
The target in assay [23] is T1, human serum albumin. The assay is described as follows: SPR, pH 7.4, immobilized HSA density ~3000 RU. As for the experimental part: as §4
Assay [24] deals with T1, human serum albumin. The experiment in a line: SPR Biacore 8K+, HSA immobilized (C1 chip), pH 7.4, bivalent analyte fit. The method, then: as §3

T2 sequence (P07724 25-608 limits assumed): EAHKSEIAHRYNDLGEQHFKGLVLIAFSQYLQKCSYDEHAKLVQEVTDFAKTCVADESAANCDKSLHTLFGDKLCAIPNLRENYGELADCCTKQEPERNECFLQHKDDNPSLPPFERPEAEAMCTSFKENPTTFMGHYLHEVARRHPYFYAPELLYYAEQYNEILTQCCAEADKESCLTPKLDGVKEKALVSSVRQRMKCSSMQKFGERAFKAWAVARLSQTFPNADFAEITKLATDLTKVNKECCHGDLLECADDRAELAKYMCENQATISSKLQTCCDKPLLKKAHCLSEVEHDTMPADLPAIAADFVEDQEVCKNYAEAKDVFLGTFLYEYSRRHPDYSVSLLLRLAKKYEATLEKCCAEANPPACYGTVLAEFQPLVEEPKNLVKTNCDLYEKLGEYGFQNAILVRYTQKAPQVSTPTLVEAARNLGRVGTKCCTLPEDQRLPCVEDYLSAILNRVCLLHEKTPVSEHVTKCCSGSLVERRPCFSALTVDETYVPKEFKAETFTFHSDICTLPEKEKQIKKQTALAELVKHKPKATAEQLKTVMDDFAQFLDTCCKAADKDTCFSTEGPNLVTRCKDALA

B1: T026301360 (VHH, not shown: large carriers; small tags and cut ends)
chain: EVQLVESGGGVVQPGGSLRLSCAASGFTFRSFGMSWVRQAPGKGPEWVSSISGSGSDTLYADSVKGRFTISRDNSKNTLYLQMNSLRPEDTALYYCTIGGSLSRSSQGTLVTVSSGGGGSGGGSEVQLVESGGGVVQPGGSLRLSCAASGFTFRSFGMSWVRQAPGKGPEWVSSISGSGSDTLYADSVKGRFTISRDNSKNTLYLQMNSLRPEDTALYYCTIGGSLSRSSQGTLVTVSSA
notes: Tetravalent ISVD fusion protein made in P. pastoris; X and Y are undisclosed target ISVDs; also called X-9GS-Y-9GS-ALB23002-9GS-Alb223; X-Y-Alb23002-Alb223
Usually koff stands for the rate constant with which the complex falls apart. As usually defined, the kon is the second-order rate constant of association. With B1, the koff was 0.0015 s⁻¹ in assay [1], 0.0015 s⁻¹ in assay [2], 0.04 s⁻¹ in assay [6] and 0.034 s⁻¹ in assay [10]. Besides, the Kd in [3] is 12 nM; in assay [8], 210 nM; in assay [11] it was 210 nM; in [12], 9 nM. The kon was 190000 M⁻¹ s⁻¹ in assay [4], 120000 M⁻¹ s⁻¹ in assay [5], 170000 M⁻¹ s⁻¹ in [7] and 170000 M⁻¹ s⁻¹ in assay [9].

B2: T032200003 (VHH)
chain: EVQLVESGGGVVQPGGSLRLSCAASGFTFRSFGMSWVRQAPGKGPEWVSSISGSGSDTLYADSVKGRFTISRDNSKNTLYLQMNSLRPEDTALYYCTIGGSLSRSSQGTLVTVSSGGGGSGGGGSGGGGSGGGGSGGGGSGGGGSGGGGSEVQLVESGGGVVQPGGSLRLSCAASGFTFRSFGMSWVRQAPGKGPEWVSSISGSGSDTLYADSVKGRFTISRDNSKNTLYLQMNSLRPEDTALYYCTIGGSLSRSSQGTLVTVSS
notes: also called ALB23002-35GS-ALB23002; bivalent ALB23002 construct
B2: the Kd in [13] was 0.512 nM; in assay [14] it was 0.865 nM; in assay [15], 1.61 nM; in assay [16] it was 1.96 nM. In addition, the off-rate (koff) in assay [13] was 0.000388 s⁻¹; in assay [14] it was 0.000461 s⁻¹; in assay [15], 0.00164 s⁻¹; in assay [16] it was 0.00167 s⁻¹. For the same molecule, the kon in assay [13] was 759000 M⁻¹ s⁻¹; in assay [14], 533000 M⁻¹ s⁻¹; in assay [15] it was 1.02e+06 M⁻¹ s⁻¹; in assay [16], 854000 M⁻¹ s⁻¹.

B3: ALB00223 (VHH)
VHH: EVQLVESGGGVVQPGGSLRLSCAASGFTFRSFGMSWVRQAPGKGPEWVSSISGSGSDTLYADSVKGRFTISRDNSKNTLYLQMNSLRPEDTALYYCTIGGSLSRSSQGTLVTVSS
notes: also called ALB00223-A; Alb223
On to B3, for which the Kd in [13] worked out at 0.69 nM; in assay [14] it was 1.37 nM; in assay [15] it was 6.02 nM; in assay [16] it was 9.09 nM. Moreover, the koff turned out to be 0.000593 s⁻¹ in [13], 0.000809 s⁻¹ in assay [14], 0.00618 s⁻¹ in [15] and 0.00697 s⁻¹ in [16]. Besides, the kon in [13] is 853000 M⁻¹ s⁻¹; in assay [14], 592000 M⁻¹ s⁻¹; in [15], 1.03e+06 M⁻¹ s⁻¹; in assay [16], 767000 M⁻¹ s⁻¹.

B4: T026301365 (VHH, not shown: large carriers; small tags and cut ends)
chain: EVQLVESGGGVVQPGGSLRLSCAASGFTFRSFGMSWVRQAPGKGPEWVSSISGSGSDTLYADSVKGRFTISRDNSKNTLYLQMNSLRPEDTALYYCTIGGSLSRSSQGTLVTVSSGGGGSGGGGSGGGGSGGGGSGGGGSGGGGSGGGGSEVQLVESGGGVVQPGGSLRLSCAASGFTFRSFGMSWVRQAPGKGPEWVSSISGSGSDTLYADSVKGRFTISRDNSKNTLYLQMNSLRPEDTALYYCTIGGSLSRSSQGTLVTVSSA
notes: Tetravalent ISVD fusion protein made in P. pastoris; X and Y are undisclosed target ISVDs; also called X-9GS-Y-9GS-ALB23002-35GS-Alb223
For B4, the koff in [1] came out at 0.0016 s⁻¹; in assay [2], 0.0016 s⁻¹; in [6], 0.0059 s⁻¹; in [10], 0.0043 s⁻¹. Further, the Kd in assay [3] came to 9.9 nM; in [8] it was 100 nM; in [11], 140 nM; in assay [12], 8.8 nM. Besides, the kon turned out to be 58000 M⁻¹ s⁻¹ in assay [4], 160000 M⁻¹ s⁻¹ in [5], 32000 M⁻¹ s⁻¹ in assay [7] and 180000 M⁻¹ s⁻¹ in assay [9].

B5: TPP-66102 (VHH)
chain: EVQLVESGGGVVQPGGSLRLSCAASGFTFRSFGMSWVRQAPGKGPEWVSSISGSGSDTLYADSVKGRFTISRDNSKNTLYLQMNSLRPEDTALYYCTIGGSLSRSSQGTLVTVSSGGGGSGGGGSGGGGSGGGGSGGGGSGGGGSGGGGSEVQLVESGGGVVQPGGSLRLSCAASGFTFRSFGMSWVRQAPGKGPEWVSSISGSGSDTLYADSVKGRFTISRDNSKNTLYLQMNSLRPEDTALYYCTIGGSLSRSSQGTLVTVSSGGGGSGGGGSGGGGSGGGGSGGGGSGGGGSGGGGSEVQLVESGGGVVQPGGSLRLSCAASGFTFRSFGMSWVRQAPGKGPEWVSSISGSGSDTLYADSVKGRFTISRDNSKNTLYLQMNSLRPEDTALYYCTIGGSLSRSSQGTLVTVSSGGGGSGGGGSGGGGSGGGGSGGGGSGGGGSGGGGSEVQLVESGGGVVQPGGSLRLSCAASGFTFRSFGMSWVRQAPGKGPEWVSSISGSGSDTLYADSVKGRFTISRDNSKNTLYLQMNSLRPEDTALYYCTIGGSLSRSSQGTLVTVSSA
notes: also called ALB23002-35GS-ALB23002-35GS-ALB23002-35GS-ALB23002-A
For the molecule B5, the koff in assay [17] was 0.00055 s⁻¹; in assay [20], 0.00012 s⁻¹; in assay [21], 0.00043 s⁻¹; in assay [22] it was 1.4e-05 s⁻¹; in assay [23] it was 3.6e-05 s⁻¹. Further, the Kd in assay [18] is 2 nM. This molecule gave an on-rate constant (kon) in [19] of 280000 M⁻¹ s⁻¹. Besides, in [24], the “ka2 (bivalent analyte fit)” value worked out at 0.005 M⁻¹ s⁻¹. Moreover, in assay [24], the “kd2 (bivalent analyte fit)” value was found to be 0.0066 s⁻¹.
